Laboratory results from a protein production outcome set (Wang et al. 2014).

Assay: label from the status in PepcDB records
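Note: failed if final PepcDB status was selected cloned or expressed and not failed if soluble or beyond.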

Sequence	protein production
MDAPGPKPLRVARYWLYTGEHPARTTEVPVWNKLCLSVCCAILVLTASSCGADKSSDFLTEGRKLMDAGNAAGAVVLFRNALEKTPADYTLHLELGRAYIALGKLDLAEGELQKCLRQQPDDPPLNLALGELYVARNEPAKALPHLARYEQGAGETAVSRELAGLAHAQARSPEEARAALERSIALDAKRVTPRLALARLFLYRGDLKRAVATVDEALAVAPEDRLALTLRGDLLLRQGDAPGALVVFRKVASLAPGDDYARYMSGLLALQTGDEAGAAAVAASMNKDFKDNSLTLMLDGALAAQRKDYTLAASLFQRSVAMRPSLEGYYKLGMALYGKGDLETALSQFNRVLEATPEYDAARRMTVTILLAQRRVAEARQEAQKLVERNPSDAAAHFMLASAQMAAGDRAGAERSFEAGLALQPAHVPALLQLSRLKQADGRPDEALEDLKAAVVAAPDDLAVRNALFAYHLGRGDTGKGVQVVLEGLRGTPQDAILYTMLVPVYVNMGDEAKGLDAVAQAHRADPDFPDAYLAGLRLHAGAGRAEQALAESEAYLARKPDAPGFLLASGALLDLLGRTAEADARFDKALAANDPRVSFAVAERAVASGQDEKARRVLEEALRQHDQTTLRDALAIQLARMGKPDDALALYTAIETQRPREALLGRYRLLTHLDRHQEAADTARELGRRESASPLPVLLEAAAFERMGQRPQGVALLEAAHRKSGDPELLLAMGGMLERNGDEARAETCYRDALKARPDHVPTLLAYAGLDMRRKEYAKATALYEKAVSIAPDDVVALNNLAMAYLEKASRDATPQKALRLALQAYTRAPDNPAVLDTLGVCMMANGRADDAARAFGRAVVAVPGNPSLRYRHAEALFKAGRKDMAAEELRAALQTPDFPEAAKARDLLRKTGN	failed
MLCIPATRDQTVSSHPAGTRQKKLFSQNDYLAPLPLPTGQQPVDSLNIIWRKNEVYIDIGCYSVGSAVMVIWPMMIMFISLAYGLNDIDLLWLGVIITGIPTLMLIHGLLRPTPPPVRFNRQRREVCVPRDNGEYWIVPWESVTAASTQCSSIGQAGRVTMGLLFIGFENPDAEASEDNKHFSMGFNCGGGETAMALWECMRSYMEIGPEVVPESRVGAMPYEKTQIGSIVTSLRKGDVFDVLHGLFFITILGTYLAEKLQNLKLSPPPDLEYPDIIEWSKSLPPEQWATPSPELLAALARQAATS	failed
MSAPIEQPAWTKRMNANPQSQAAPVSAAQQDLQRLRTHLNTQIIGQSDLVDAMLIALLADGHMLVEGAPGLAKTRAIHVLSRGVEADFQRIQFTPDLLPADLTGTEVYRPQDGSFHFQPGPLFHNLVLADEINRSPAKVQSALLEAMAERQITVGRKTYPLPALFLVMATQNPIEQEGTYPLPEAQLDRFLMYVRIGYPGAEQEKAILRLVRGEAGRPECRAAEAMEPVSQQTLFSAREEVLGVYLAEALEDYLLQLILATREPARYGDSLARWILYGVSPRATLALDRCARARAWLDGRDYVTPDDIQALAPAILRHRLILSYEAEAEGVSSDQVVKDLLRRIAVP	failed
MDQSTRARTRTAFAIDAVGQGAKAAVKAVWWTATGGLARSLTRPTEGPQARRFTPAAPPPVPGSLRRAYLEAFEKDARDVAAGLYPAIEDGPIRPSAALREAVDFLVDAFEVDQRRRRGDGAEVRNAADPSVYPNYYRQNFHYQSGGWFTAESAGRYDAQVEALFSGTAGAMRRRGLSLLARHWRGRDHRDAKILDVACGSGAFLKDLSAAFPRAALAGLDLSEAYLAKARKRTAVGGVKAKAETLPFGDATLDAVTCVYLFHELPPRVRPVVAASLARVLKPGGVLVLVDSVQPVDTPDLARLLEAFPVYFHEPYYSSYAETNLEALFAEAGLRLLDQDCAFLTKAMLFVKPGG	failed
MQASSNGTTHTKRVRIRPFQKGIRRKRKDLMTEAENRCRLVLIVPDIADADEQARIVADALKGGDVASVIVPQYGLDDGAFQKHAEKLVPVIQDAGAAALIAGDSRVAGRAKADGLHITGNAQALSEAIDKHAPKLIVGGGNASDRHNALEIGEVRPDYIFFGKLDGDIKPEAHPKNLALGEWWASMIEIPCIVMAGTDPASALAVAETRAEFVALRLAVFGEPGRAPSIVAEINALLDEKAPRFED	failed
MATIGLDRLYYSKITEDANGEETYAQPSVLAKAITAELSVELVEAILYADDGAAEVVKDFNSGTLTLGVDDIGPMVAADLTGASTDDNGVLISASENVGTPVAVGFRAQRANGTYRYFWLYRVKFGLPATNLQTKADSITFSTPTIEGTVMRRNKLDGLGKHPWKAEVTEGDPGVSSTTITGWFTEVYEPVYTPEP	failed
MNEADMLFSVTVPGSTANLGPGFDSVGMALSRYLKLTVFESDKWSFEAETETVAGIPAGTDNLIYQVAKRTADLYGKEMPPVHVKVWSDIPLARGLGSSAAAIVAAIELADELCGLKLSEADKLHLASLEEGHPDNAGASLVGGLVIGLHEDDETQMIRVPNADIDVVVVIPFYEVLTRDARDVLPKEFPYADAVKASAVSNILIAAIMSKDWPLVGKIMKKDMFHQPYRAMLVPELSKVEHVAEMKGAYGTALSGAGPTILVMTEKGKGEELKEQLALHFPHCEVDALTVPKEGSIIERNPLYQVKSV	not failed
MTRRGGRLRTVLTVLTAWSALAGAALAGAAPAGGAPRSVPLAPGVEYTQFDIPADRGVTHAHLLSVDLADPRVRVGLLHPGAVAARAPVSRLADSQGALAGINGDFFNITETQHPGVEATGSTDGPAIADGHTLKAAVPNGQRFGPALPPGTTTEDVLGVGDDRRARLDRLALEGSVDTAAGELPLRGLNQYALPEGSVGAYTADWGSVSRARAVCGTDTDRAAPCSTDTYEVTVRDGQVVSFADSPGSGPIAAGTTVLVGREAGAQQLRKLSTGEEVSVEHRLVAAGSQVAYSFAIGGYPVLRQGKPLPGLDTVTSAVRTAVGIKDAGRRLLLLAIDGAAAYRSGLTIAEVASVMRGLGATEAFSLDGGGSTTLVARAPGATSVTVRNHPSGGAERPVPNGIGVFTRT	failed
MEYDEKLARFRQAHLNPFNKQSGPRQHEQGPGEEVPDVTPEEALPELPPGEPEFRCPERVMDLGLSEDHFSRPVGLFLASDVQQLRQAIEECKQVILELPEQSEKQKDAVVRLIHLRLKLQELKDPNEDEPNIRVLLEHRFYKEKSKSVKQTCDKCNTIIWGLIQTWYTCTGGPRPRRGVRNERDQSSCLRWAHIQM	failed
MPSSFNVESADGYERLMGRWSRKLAPMLIDFAGLADGDRVLDVGCGTGSLAFTLAETSGLQEIAAVDYSPVFVEAATRRNTDPRVSIRQADACALPFEDDRFDRAMSLLVLHFVPEAGKAVSEMRRVVRPGGVVAAAVWDHYGGMSGMRMMWDTVAMLDEGALPLRRKYCFQPMMRPGEMKESFIAQGLADVEETSLLIRMEYVSFADYWEPIAAGEGPLGKYVAGLDPAKRKAVDAAMRAAYEAGEPDGPRSFAAVAWACRGRVPGQS	failed
FEERSGVVPCGTPWGQWYQTLEEVFIEVQVPPGTRAQDIQCGLQSRHVALAVGGREILKGKLFDSTIADEGTWTLEDRKMVRIVLTKTKRDAANCWTSLLESEYAADPWVQDQMQRKLTLERFQKENPGFDFSGAEISGNYTKGGPDFSNLEKDGT	not failed
MLEQILLGTYTRRASQGIYKIALDTTQGRLTEATLLLEETSPTYLALSQKGELFSVTSVDGEGGTAAYQPEMDHFNLLNKVTEEGAPPCYVAVDENRQLVYAANYHQGIVHVYRILEDGSLEDADKVIHTEPTGPHENQNNAHVHYTDLTPDQRLVVCDLGTDRVYTYNVSLDGKLSEIAQFVTEPGTGPRHLVFHPTKSLAYLFGELDSTVSVLSYDETDGSFTELQKVSTLPADYDAFNGGAAIRISSDGRFLYASNRGHNSIAVYAVSENGEAIERIQLISTEGDIPRDFDLDPSEDFIVVANQDSDNLTLYRRNQETGLLEMIQKDVAVPECVCVLFVLEHHHHHH	not failed
MGHHHHHHSHMNSCILQATVVEAPQLRYTQDNQTPVAEMVVQFPGLSSKDAPARLKVVGWGAVAQELQDRCRLNDEVVLEGRLRINSLLKPDGNREKQTELTVTRVHHLTLDSATGI	failed
MDNKVSILNQPKPFKMIFFIELWERFGYYGLQGILAVYFVDKLGFSMQDSFVTFGAFAALVYGLVSVGGYVGDYVLGTKRTMVFGAVVLALGYFLMGFSILNPNFIYLALGAIAVGNGLFKANPSSLLAKCYEKGDSRLDGAFTLYYMSINIGSLVSLSISPVIANNYGYEYAFVICGLGLIASLFSYFSLRSTVQGIGSEPDALPLNKTKALIVLIGTVASTLVCAWLLQNIMMANLALGLIGVGVVGFFLKETFKETGEQRNKMIVAFILMLQAIIFYVLYAQMPTSLNFFAINNVHSELFGIDINPVSLQALNPFWVIFCSPILAYLYTYYGNQNKDLSMPGKFTVGMFMCAFGFLSVAAAGNWFADQAGMVSVWWMILVYLFQSLGELMISGLGLAMVASLVPQRLMGFTMGAWFLTQAASFIIGGYVATFSATPEHLTAPLDTLPVYTELFQNIGFVTLAVAIVMAFTAPKLNKMMTSSQPEDAELVEQP	failed
MEFRFENLLGAPYRGGNAVITKNTQLISPVGNRVSVTDLSKNHSVTLPLETSTNICRLASSPDGTFLLAVDEQNRCLFINLPRRVVLHRITFKDKVGALKFSPNGKFIAVGIGKLVEIWRSPGFRRAVLPFERVRTFANSDDKVVSLEWSLDSDYLLVGSRDLAARLFCVRKLKGVLNKPFLFLGHRDSVVGCFFGVDKMTNKVNRAFTIARDGYIFSWGYTEKDVKMDESEDGHSEPPSPVTPDRADEVMVENGGGVGTELKKRKEYDGKGLESDEEGDDDDEEYMHRGKWVLLRKDGCNQASAKVTACDYHQGLDMVVVGFSNGVFGLYQMPDFICIHLLSISRQKLTTAVFNERGNWLTFGCAKLGQLLVWDWRTETYILKQQGHYFDVNCVTYSPDSQLLATGADDNKVKVWNVMSGTCFITFTEHTNAVTALHFMADNHSLLSASLDGTVRAWDFKRYKNYKTYTTPTPRQFVSLTADPSGDVVCAGTLDSFEIFVWSKKTGQIKDILSGHEAPVHGLMFSPLTQLLASSSWDYTVRLWDVFASKGTVETFRHNHDVLTVAFRPDGKQLASSTLDGQINFWDTIEGVLMYTIEGRRDIAGGRVMTDRRSAANSSSGKCFTTLCYSADGGYILAAGTSRYICMYDIADQVLLRRFQISHNLSLDGVLDFLHSKKMTEAGPIDLIDDDNSDEEGGIDKQSRGNLGYDLPGSRPNRGRPIIRTKSLSIAPTGRSFAAATTEGVLIFSIDDTFIFDPTDLDIDVTPEAVEAAIEEDEVSRALALSMRLNEDSLIKKCIFAVAPADIKAVAISVRQKYLERLMEALVDLLENCPHLEFILHWCQEICKAHGSSIQRNYRTLLPALRSLQKAITRAHQDLADMCSSNEYTLRYLCSVPNNH	failed
MAEKPKLHYFNARGRMESTRWLLAAAGVEFEEKFIKSAEDLDKLRNDGYLMFQQVPMVEIDGMKLVQTRAVLNYIASKYNLYGKDIKERALIDMYIEGIADLGEMILLLPVCPPEEKDAKLALIKEKIKNRYFPAFEKVLKSHGQDYLVGNKLSRADIHLVELLYYVEELDSSLISSFPLLKALKTRISNLPTVKKFLQPGSPRKPPMDEKSLEEARKIFRF	not failed
MPDKFKRVHVIVMDSVGIGEAPDAAKFGDFDVDTFGHIAKHVGGLKMPEMGKLGLSNIREIEGIEKAEKPLAYYTKMQEASNGKDTMTGHWEIMG	failed
GSQPKLTEAVSLMEANIEEPLSTDDIAYYVGVSRRQLERLFKQYLGTVPSKYYLELRLNRARQLLQQTSKSIVQIGLACGFSSGPHFSSTYRNHFNITPREERAQRAQPGAL	not failed
